Assays:
[1] = target: T1, human GLP-1 receptor (Homo sapiens, UniProt P43220); assay: In vitro cellular assay for human GLP-1 receptor efficacy (cAMP HTRF, HEK-293); assay type: cell-based; conditions: HEK-293 cells stably expressing human GLP-1 receptor, read-out: hGLP-1R cAMP EC50
T1 construct: expressed in transfected cells
Method: The cAMP content of the cells was determined using a kit from Cisbio Corp. (cat. no. 62AM4PEC) based on HTRF (Homogenous Time Resolved Fluorescence).
The cAMP content of cells was determined using a kit from Cisbio Corp. (cat. no. 62AM4PEC) based on HTRF (Homogenous Time Resolved Fluorescence). For preparation, cells were split into T175 culture flasks and grown overnight to near confluence in medium (DMEM/10% FBS). Medium was then removed and cells washed with PBS lacking calcium and magnesium, followed by proteinase treatment with accutase (Sigma-Aldrich cat. no. A6964). Detached cells were washed and resuspended in assay buffer (1×HBSS; 20 mM HEPES, 0.1% BSA, 2 mM IBMX) and cellular density determined. They were then diluted to 4×10^5cells/mL and 25 μL-aliquots dispensed into the wells of 96-well plates. For measurement, 25 μL of test compound in assay buffer was added to the wells, followed by incubation for 30 minutes at room temperature.

[2] = test system: MAP kinase ERK1/2; assay: ERK1/2 phosphorylation In-Cell Western (pERK ICW) in CHO cells overexpressing human FGFR1c plus KLB; assay type: cell-based; conditions: ERK1/2 phosphorylation Thr202/Tyr204
Method: FIG. 1C-1 to FIG. 1C-3) Dose dependent in vitro activation of the downstream effector ERK. Activation of the downstream effector of FGF signaling, the MAP kinase ERK1/2, was determined via In-Cell Western assay in CHO cells stably overexpressing human FGFR1c and KLB using an antibody directed against the ERK1/2 phosphorylated amino acid residues threonine 202 and tyrosine 204.
(§1) CHO Flp-In cells (Invitrogen, Darmstadt, Germany) stable expressing the human FGFR1c together with human beta-Klotho (KLB) were used for FGF-21 receptor autophosphorylation assay using In-Cell Western. In order to determine the receptor autophosphorylation level, 2×10^4 cells/well were seeded into 96-well plates and grown for 48 h. Cells were serum starved with serum-free medium Ham's F-12 Nutrient Mix with GlutaMAX (Gibco, Darmstadt, Germany) for 3-4 h. The cells were subsequently treated with increasing concentrations of either human FGF-21, the indicated FGF-21 fusion protein, or other peptides for 5 min at 37° C. After incubation the medium was discarded and the cells were fixed in 3.7% freshly prepared para-formaldehyde for 20 min. Cells were permeabilized with 0.1% Triton-X-100 in PBS for 20 min. Blocking was performed with Odyssey blocking buffer (LICOR, Bad Homburg, Germany) for 2 h at room temperature. Anti-pFGFR Tyr653/654 (New England Biolabs, Frankfurt, Germany) was incubated overnight at 4° C. After incubation of the primary antibody, cells were washed with PBS+0.1% Tween20. The secondary anti-Mouse 800CW antibody (LICOR, Bad Homburg, Germany) was incubated for 1 h at room temperature. Subsequently cells were washed again with PBS+0.1% Tween20 and infrared dye signals were quantified with an Odyssey imager (LICOR, Bad Homburg, Germany). Results were normalized by quantification of DNA with TO-PRO3 dye (Invitrogen, Karlsruhe, Germany). FIG. 1B-1 to FIG. 1B-4 show the results from an ICW with CHO cells overexpressing human FGFR1c plus KLB.
To assess the activation of a downstream effector of FGFR signalling by FGF-21-GLP-1RA fusion proteins the phosphorylation of MAP kinases ERK1/2 were analysed. The same ICW protocol as described above was used, simply the primary antibody was replaced by anti-phospho-p44/42 MAPK (Erk1/2) (Thr202/Tyr204) (New England Biolabs, Frankfurt, Germany). FIG. 1C-1 to FIG. 1C-3 show the results from ICW with CHO cells overexpressing human FGFR1c plus KLB and detection of ERK1/2 phosphorylation.

[3] = target: human FGFR1c plus KLB (Homo sapiens, UniProt P11362+Q86Z14); assay: FGF-21 receptor autophosphorylation In-Cell Western (pFGFR ICW) in CHO cells; assay type: cell-based; conditions: CHO cells overexpressing human FGFR1c plus KLB, FGFR autophosphorylation
Method: FIG. 1B-1 to FIG. 1B-4) The FGF induced FGFR autophosphorylation was measured via a specific and highly sensitive In-Cell Western (ICW) in CHO cells stably overexpressing human FGFR1c together with human betaKlotho (KLB). In-Cell Western assay is an immunocytochemical assay usually performed in microplate format. Target-specific primary antibodies and infrared-labelled secondary antibodies are used to detect target proteins in fixed cells, and fluorescent signal from each well is quantified (e.g. the In-Cell Western assay from LI-COR Biosciences, USA).
The cellular efficacy of FGF-21 or FGF-21 fusion proteins was measured using a specific and highly sensitive In-Cell Western (ICW) assay. The ICW assay is an immunocytochemical assay usually performed in microplate format.
as §1

[4] = test system: ob/ob mice; assay: Treatment of ob/ob mice by chronic infusion (Alzet pumps, 11 days); assay type: in vivo, mouse; conditions: for Relative body weight change (%): after 11 days of treatment
Method: Female ob/ob mice (B6.V-LEP OB/J, age of 9 weeks) were obtained from Charles Rivers Laboratories (Sulzfeld, Germany). Mice were randomly assigned to treatment or vehicle groups, and the randomization was stratified by body weight and fed blood glucose levels. The animals were housed in groups of 8 at 23° C. and on a 12 h light-dark cycle. All experimental procedures were conducted according to German Animal Protection Law. Mice were fed ad libitum with standard rodent chow during the drug treatment periods. Body weight and food intake was recorded every other day throughout the study.
Ob/ob mice were treated with vehicle (PBS), 0.03, 0.1, 0.3, and 1.0 mg·kg^−1·day^−1 recombinant Exenatide-IEGR-FGF-21 (SEQ ID NO: 15) via chronic infusion by Alzet pumps (type 1004) over 11 days.
At the end of the study liver weight and liver triglycerides were analysed.
Two days before pump implantation and after 11 days of treatment blood glucose was measured by tail tip bleeding under fed conditions. As shown in FIGS. 10 and 11 blood glucose levels of the chronic infused mice were decreased dose-dependently with highest effect at the dosage of 1.0 mg·kg^−1·day^−1 recombinant fusion protein.

[5] = 0.03, 0.1, 0.3 and 1 mg/kg, end of study

T1 sequence (P43220 24-463): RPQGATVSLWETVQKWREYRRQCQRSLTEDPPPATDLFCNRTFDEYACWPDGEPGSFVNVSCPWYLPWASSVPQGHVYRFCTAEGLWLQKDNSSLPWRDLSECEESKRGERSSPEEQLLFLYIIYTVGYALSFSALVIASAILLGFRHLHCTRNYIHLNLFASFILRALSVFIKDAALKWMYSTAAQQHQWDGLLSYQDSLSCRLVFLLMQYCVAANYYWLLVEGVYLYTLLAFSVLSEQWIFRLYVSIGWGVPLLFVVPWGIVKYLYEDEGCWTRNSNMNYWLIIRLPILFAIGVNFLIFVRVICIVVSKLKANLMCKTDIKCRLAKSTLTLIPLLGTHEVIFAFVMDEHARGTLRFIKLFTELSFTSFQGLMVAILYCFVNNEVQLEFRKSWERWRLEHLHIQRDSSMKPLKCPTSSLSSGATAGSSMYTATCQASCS
human FGFR1c plus KLB, sequence (P11362 22-822): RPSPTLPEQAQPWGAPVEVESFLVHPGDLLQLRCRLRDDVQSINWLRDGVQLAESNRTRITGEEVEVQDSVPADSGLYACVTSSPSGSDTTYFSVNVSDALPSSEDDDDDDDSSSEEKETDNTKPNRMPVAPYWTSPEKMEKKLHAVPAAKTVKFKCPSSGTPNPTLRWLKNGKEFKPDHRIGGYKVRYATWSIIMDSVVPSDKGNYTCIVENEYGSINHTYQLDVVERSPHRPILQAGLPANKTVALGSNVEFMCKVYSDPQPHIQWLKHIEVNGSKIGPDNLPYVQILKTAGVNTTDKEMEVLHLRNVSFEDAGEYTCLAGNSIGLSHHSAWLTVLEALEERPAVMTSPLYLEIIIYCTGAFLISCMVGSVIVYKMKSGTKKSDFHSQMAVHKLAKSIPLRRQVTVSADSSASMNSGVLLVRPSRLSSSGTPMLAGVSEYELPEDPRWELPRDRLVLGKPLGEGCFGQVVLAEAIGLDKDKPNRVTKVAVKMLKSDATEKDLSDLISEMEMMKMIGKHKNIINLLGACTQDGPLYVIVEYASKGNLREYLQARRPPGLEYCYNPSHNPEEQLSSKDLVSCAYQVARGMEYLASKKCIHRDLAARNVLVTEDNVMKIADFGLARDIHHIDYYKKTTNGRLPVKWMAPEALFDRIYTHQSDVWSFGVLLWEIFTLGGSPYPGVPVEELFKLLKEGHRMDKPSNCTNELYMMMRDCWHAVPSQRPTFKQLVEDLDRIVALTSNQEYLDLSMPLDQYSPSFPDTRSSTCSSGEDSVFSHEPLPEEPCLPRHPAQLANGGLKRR
human FGFR1c plus KLB, sequence (Q86Z14 whole entry): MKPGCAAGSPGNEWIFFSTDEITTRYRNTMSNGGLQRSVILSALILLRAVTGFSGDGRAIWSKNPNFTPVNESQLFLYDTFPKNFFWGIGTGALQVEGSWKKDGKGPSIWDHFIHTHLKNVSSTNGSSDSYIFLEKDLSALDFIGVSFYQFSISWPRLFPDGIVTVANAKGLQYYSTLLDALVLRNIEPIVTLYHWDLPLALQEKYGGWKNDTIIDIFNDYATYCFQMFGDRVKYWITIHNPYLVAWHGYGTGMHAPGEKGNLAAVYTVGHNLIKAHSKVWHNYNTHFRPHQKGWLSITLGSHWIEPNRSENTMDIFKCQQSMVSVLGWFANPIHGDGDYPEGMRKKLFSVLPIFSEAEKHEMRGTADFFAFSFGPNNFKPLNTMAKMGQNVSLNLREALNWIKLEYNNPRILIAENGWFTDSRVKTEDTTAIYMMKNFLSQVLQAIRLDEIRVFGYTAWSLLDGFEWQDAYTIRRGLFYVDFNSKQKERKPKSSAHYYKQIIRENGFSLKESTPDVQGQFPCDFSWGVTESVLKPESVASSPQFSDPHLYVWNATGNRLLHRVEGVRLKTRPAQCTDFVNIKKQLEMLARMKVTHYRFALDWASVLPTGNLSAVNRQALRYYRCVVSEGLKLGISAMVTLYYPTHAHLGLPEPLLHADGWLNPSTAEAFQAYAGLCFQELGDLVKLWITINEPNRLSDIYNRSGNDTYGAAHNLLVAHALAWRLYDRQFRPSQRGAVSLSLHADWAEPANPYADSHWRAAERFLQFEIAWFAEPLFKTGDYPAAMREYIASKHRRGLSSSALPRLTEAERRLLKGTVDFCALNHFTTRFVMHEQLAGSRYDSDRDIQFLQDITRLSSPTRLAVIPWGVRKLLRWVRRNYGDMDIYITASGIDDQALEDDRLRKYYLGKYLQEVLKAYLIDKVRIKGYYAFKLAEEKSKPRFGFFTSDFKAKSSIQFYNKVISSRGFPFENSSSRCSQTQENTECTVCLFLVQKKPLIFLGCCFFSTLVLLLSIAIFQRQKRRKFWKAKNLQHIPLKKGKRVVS

Row | Substance | EC50 [1] | EC50 [2] | EC50 [3] | further results
1 | Exenatide-APSCPAS-FGF21: fusion protein, linker based on PAS sequence plus Cystein for potential modification | 13.2 pM | 10900 pM | 193000 pM | –
2 | Exenatide-APSPAS-FGF21: fusion protein, linker based on PAS sequence | 3 pM | 270 pM | 4100 pM | –
3 | Exenatide-FGF21-GG-ABD-GG-FGF21: fusion protein, GG-ABD-GG = linker | 21.6 pM | 4340 pM | 37300 pM | –
4 | Exenatide-FGF21-GG-ABD: fusion protein, GG-ABD = linker (albumin binding domain) | 7.96 pM | 89900 pM | 79800 pM | –
5 | Exenatide-FGF21: fusion protein of exenatide and human FGF-21 His29-Ser209 without linker | 4.1 pM | 510 pM | 1300 pM | –
6 | Exenatide-GG-ABD-GG-FGF21: fusion protein, GG-ABD-GG = linker | 15.9 pM | – | – | –
7 | Exenatide-GGGGS-His-GGGGS-ABD-GG-FGF21: fusion protein, GGGGS-His-GGGGS-ABD-GG = linker | 2.54 pM | 4970 pM | – | –
8 | Exenatide-GGGRR-FGF21: fusion protein, GGGRR protease cleavage site linker | 7.7 pM | 980 pM | 7400 pM | –
9 | Exenatide-GSGS-FGF21: fusion protein, GSGS = linker | 7.2 pM | 530 pM | 19100 pM | –
10 | Exenatide-IEGQ-FGF21: fusion protein, IEGQ = linker (mutated/defect Factor Xa cleavage site) | 6.1 pM | 790 pM | 35400 pM | –
11 | Exenatide-IEGR-FGF21: fusion protein exenatide - Factor Xa cleavage site IEGR linker - FGF21 | 4 pM | 400 pM | 1900 pM | Relative body weight change (%) ([4]; 0.03 mg/kg, chronic infusion): +6.6%; Relative body weight change (%) ([4]; 0.1 mg/kg, chronic infusion): +1.1%; Relative body weight change (%) ([4]; 0.3 mg/kg, chronic infusion): −2.6%; Relative body weight change (%) ([4]; 1 mg/kg, chronic infusion): −17.8%; highest reduction of body weight ([4]; 1 mg/kg, chronic infusion): 17.8%; body weight ([4]; 0.03, 0.1, 0.3 and 1 mg/kg, chronic infusion): dose dependent decrease; liver triglycerides [4, 5]: dose dependent decrease; total liver weight [4, 5]: dose dependent decrease; blood glucose ([4]; 0.03, 0.1, 0.3 and 1 mg/kg, fed, after 11 days of chronic infusion): dose dependent decrease
12 | Lixisenatide-FGF21: fusion protein of lixisenatide and FGF21 without linker | 3.7 pM | 240 pM | 3700 pM | –
13 | Lixisenatide-IEGR-FGF21: fusion protein lixisenatide - Factor Xa cleavage site - FGF21 | 3.8 pM | 1000 pM | 3100 pM | –

Source: patent US20190085043A1, “FUSION PROTEINS FOR TREATING A METABOLIC SYNDROME” (SANOFI, priority 2012, published 2019)
